1 molecule from patent publication US20150175710A1 (DEVELOPMENT CENTER FOR BIOTECHNOLOGY, published 2015) can be followed below.

In assay [1] the target is T1, human ENO1 protein (wild type) (human, UniProt P06733 1-434).
T1 construct: Coated on ELISA plates; also called alpha-Enolase; enolase-1; not shown: source of the protein in Exampl
Nature of the assay: ELISA, ENO1 coated, EN10 mAb 2-fold serial dilution, four parameter logistic fit.

Assay [2] addresses T1, human ENO1 protein (wild type). Nature of the assay: ELISA, 400 ng human ENO1 coated, antibody serial dilution, four parameter logistic fit. Background: In an ELISA, binding on a coated surface is turned into a signal by an enzyme label.
For assay [3], the target named is T2, human ENO1 mutant D300 to alanine (human, UniProt P06733 1-434).
T2 construct: Expressed in E. coli; also called A300; not shown: His tag (Ni-agarose purified)
T2 sequence (P06733 other isoform, or with tags, fused parts or gaps mutant limits assumed): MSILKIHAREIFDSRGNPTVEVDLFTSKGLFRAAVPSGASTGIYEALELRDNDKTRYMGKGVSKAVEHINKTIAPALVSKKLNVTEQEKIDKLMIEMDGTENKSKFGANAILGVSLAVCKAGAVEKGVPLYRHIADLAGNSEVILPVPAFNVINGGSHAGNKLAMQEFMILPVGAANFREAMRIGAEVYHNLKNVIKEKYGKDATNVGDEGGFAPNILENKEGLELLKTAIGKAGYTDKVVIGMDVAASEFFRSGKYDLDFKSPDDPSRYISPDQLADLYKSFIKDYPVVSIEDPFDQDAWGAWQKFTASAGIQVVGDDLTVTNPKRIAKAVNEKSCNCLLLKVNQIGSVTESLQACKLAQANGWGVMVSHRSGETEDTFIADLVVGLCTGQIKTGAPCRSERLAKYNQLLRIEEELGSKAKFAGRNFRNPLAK
Nature of the assay: ELISA, mutant ENO1 coated, EN10 mAb 2-fold serial dilution, four parameter logistic fit.

Assay [4] addresses T3, human ENO1 mutant G302 to alanine (human, UniProt P06733 1-434).
T3 construct: Expressed in E. coli; also called A302; not shown: His tag (Ni-agarose purified)
The description is as above.

Assay [5] has as its target T4, human ENO1 mutant Q305 to alanine (human, UniProt P06733 1-434).
T4 construct: Expressed in E. coli; also called A305; not shown: His tag (Ni-agarose purified)
Described as above.

The target in assay [6] is T5, human ENO1 mutant K306 to alanine (human, UniProt P06733 1-434).
T5 construct: Expressed in E. coli; also called A306; not shown: His tag (Ni-agarose purified)
T5 sequence (P06733 other isoform, or with tags, fused parts or gaps mutant limits assumed): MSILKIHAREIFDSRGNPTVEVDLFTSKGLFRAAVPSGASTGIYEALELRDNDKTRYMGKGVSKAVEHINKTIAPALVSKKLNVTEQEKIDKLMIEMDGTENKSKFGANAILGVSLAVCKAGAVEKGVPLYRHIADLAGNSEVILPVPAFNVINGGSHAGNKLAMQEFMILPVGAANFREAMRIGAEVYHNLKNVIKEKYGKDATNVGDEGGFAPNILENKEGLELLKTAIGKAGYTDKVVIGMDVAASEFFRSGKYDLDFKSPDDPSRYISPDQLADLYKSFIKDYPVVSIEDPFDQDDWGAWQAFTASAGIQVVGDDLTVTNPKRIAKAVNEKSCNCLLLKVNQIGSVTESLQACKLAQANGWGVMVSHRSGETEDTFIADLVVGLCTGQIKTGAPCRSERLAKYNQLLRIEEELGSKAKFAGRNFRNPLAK
The assay is described as above.

Assay [7] concerns the target T6, human ENO1 mutant A309 to glycine (human, UniProt P06733 1-434).
T6 construct: Expressed in E. coli; not shown: His tag (Ni-agarose purified)
The description is as above.

Assay [8] deals with T7, human ENO1 mutant K326 to alanine (human, UniProt P06733 1-434).
T7 construct: Expressed in E. coli; also called A326; not shown: His tag (Ni-agarose purified)
T7 sequence (P06733 other isoform, or with tags, fused parts or gaps mutant limits assumed): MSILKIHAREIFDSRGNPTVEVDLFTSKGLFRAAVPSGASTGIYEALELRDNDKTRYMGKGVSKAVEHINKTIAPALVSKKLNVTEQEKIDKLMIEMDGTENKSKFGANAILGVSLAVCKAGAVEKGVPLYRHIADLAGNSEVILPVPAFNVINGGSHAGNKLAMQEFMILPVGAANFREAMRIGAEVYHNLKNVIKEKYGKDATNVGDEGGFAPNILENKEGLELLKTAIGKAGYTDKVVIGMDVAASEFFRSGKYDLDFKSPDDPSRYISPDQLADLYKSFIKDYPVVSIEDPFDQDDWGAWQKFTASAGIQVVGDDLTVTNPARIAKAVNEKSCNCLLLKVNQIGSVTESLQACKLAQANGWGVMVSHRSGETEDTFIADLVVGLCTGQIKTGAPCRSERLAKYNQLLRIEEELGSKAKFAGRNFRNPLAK
The assay is described as above.

In assay [9] the target is T8, human ENO1 mutant N333 to alanine (human, UniProt P06733 1-434).
T8 construct: Expressed in E. coli; also called A333; not shown: His tag (Ni-agarose purified)
T8 sequence (P06733 other isoform, or with tags, fused parts or gaps mutant limits assumed): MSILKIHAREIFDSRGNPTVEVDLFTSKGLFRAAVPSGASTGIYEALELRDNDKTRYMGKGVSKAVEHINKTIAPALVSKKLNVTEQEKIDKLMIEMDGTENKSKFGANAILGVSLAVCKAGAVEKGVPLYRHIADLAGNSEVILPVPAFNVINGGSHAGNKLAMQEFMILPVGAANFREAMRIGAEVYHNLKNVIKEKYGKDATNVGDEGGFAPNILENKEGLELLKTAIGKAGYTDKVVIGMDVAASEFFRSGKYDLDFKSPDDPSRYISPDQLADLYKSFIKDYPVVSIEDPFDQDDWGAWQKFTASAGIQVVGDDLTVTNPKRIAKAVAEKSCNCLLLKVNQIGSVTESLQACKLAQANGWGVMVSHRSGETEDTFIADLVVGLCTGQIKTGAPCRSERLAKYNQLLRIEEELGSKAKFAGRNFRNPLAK
The assay is described as above.

The target of assay [10] is T9, human ENO1 mutant E334 to alanine (human, UniProt P06733 1-434).
T9 construct: Expressed in E. coli; also called A334; not shown: His tag (Ni-agarose purified)
T9 sequence (P06733 other isoform, or with tags, fused parts or gaps mutant limits assumed): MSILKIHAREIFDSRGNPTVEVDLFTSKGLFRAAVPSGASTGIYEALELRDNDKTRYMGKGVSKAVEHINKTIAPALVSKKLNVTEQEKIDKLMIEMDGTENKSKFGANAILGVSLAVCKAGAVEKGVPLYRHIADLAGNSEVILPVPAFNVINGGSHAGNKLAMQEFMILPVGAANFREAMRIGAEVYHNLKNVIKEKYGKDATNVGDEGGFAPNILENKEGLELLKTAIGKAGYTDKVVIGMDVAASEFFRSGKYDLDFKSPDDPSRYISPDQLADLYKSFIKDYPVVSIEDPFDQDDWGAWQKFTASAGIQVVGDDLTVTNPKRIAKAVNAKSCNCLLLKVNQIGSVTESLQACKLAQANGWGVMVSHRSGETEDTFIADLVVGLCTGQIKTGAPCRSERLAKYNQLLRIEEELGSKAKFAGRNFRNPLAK
The assay is described as above.

Assay [11] has as its target T10, human ENO1 mutant K335 to alanine (human, UniProt P06733 1-434).
T10 construct: Expressed in E. coli; also called A335; not shown: His tag (Ni-agarose purified)
The assay is described as above.

T1 sequence (P06733 whole entry): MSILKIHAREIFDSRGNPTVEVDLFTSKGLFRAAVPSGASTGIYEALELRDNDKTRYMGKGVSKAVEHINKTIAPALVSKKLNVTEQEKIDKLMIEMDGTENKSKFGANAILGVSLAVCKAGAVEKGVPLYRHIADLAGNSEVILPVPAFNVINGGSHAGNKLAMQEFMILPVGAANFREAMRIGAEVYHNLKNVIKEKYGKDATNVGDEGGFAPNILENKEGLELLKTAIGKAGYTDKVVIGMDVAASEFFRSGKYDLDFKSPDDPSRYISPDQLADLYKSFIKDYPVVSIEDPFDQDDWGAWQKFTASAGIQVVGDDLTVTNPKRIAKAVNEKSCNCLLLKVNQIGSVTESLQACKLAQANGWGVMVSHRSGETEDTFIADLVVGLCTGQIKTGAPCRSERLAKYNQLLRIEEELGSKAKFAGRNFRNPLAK
T10 sequence (P06733 other isoform, or with tags, fused parts or gaps mutant limits assumed): as the sequence (P06733 whole entry) above, with K335A counted along it
T4 sequence (P06733 other isoform, or with tags, fused parts or gaps mutant limits assumed): as the sequence (P06733 whole entry) above, with Q305A counted along it
T3 sequence (P06733 other isoform, or with tags, fused parts or gaps mutant limits assumed): as the sequence (P06733 whole entry) above, with G302A counted along it
T6 sequence (P06733 other isoform, or with tags, fused parts or gaps mutant limits assumed): as the sequence (P06733 whole entry) above, with A309G counted along it

B1: anti-human ENO1 antibody EN10 mAb (antibody, V domains shown)
VH: EVQLQQSGPELVKPGASVKMSCKASGYTFTSCVMNWVKQKPGQGLEWIGYINPYNDGTKYNEKFKGKATLTSDKSSSTAYMELSSLTSEDSAVYYCAREGFYYGNFDNWGQGTTLTVSS
VL: DIQMTQSPASLSASVGETVTITCRASENIYSYLTWYQQKQGKSPQLLVYNAKTLPEGVPSRFSGSGSGTQFSLKINSLQPEDFGSYYCQHHYGTPYTFGGGTKLEITR
As for B1, the Kd (usually the free concentration of one partner at which half of the binding sites on the other are occupied at equilibrium, for simple one-to-one binding) in assay [1] was found to be 0.443 nM; in assay [2], 0.203 nM; in assay [3] it was 63.3 nM; in [4] it was 0.345 nM; in [5], 0.331 nM; in assay [6], 0.465 nM. Further, the Kd in assay [7] turned out to be 5.63 nM; in [8], 0.787 nM; in [9], 0.413 nM; in [10], 107 nM; in [11] it was 9.57 nM.
